Our source for the Kd values is article PMC12464775 (2025).

One may read the Kd as the equilibrium constant for the complex coming apart. The low end stands for higher affinity, the high end for lower affinity.

Residue numbers refer to the chain shown, from its start. Ends that are not written are not given here. * marks the point of attachment. Biotin = O=C1N[C@H]2[C@H](CS[C@H]2CCCCC(=O)*)N1; azide = [N-]=[N+]=N*

T1: human RNF43 (in solution) (human)
T1 chain: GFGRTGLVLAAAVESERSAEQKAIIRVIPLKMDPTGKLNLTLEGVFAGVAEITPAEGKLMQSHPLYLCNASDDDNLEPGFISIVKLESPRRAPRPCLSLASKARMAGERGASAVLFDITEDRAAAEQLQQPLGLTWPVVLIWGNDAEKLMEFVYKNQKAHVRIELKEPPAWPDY

T2: deglycosylated RNF43 (human, UniProt Q68DV7 24-197, biotin; deglycosylated with Deglycosylation Mix II (glycosylation sites N62 and N92))
T2 chain: T1 chain

B1: GUR-1.6.12 (designed binder)
chain: QCVKKDELCIPYYLDCCWPLDCRWAVKYQWFWDCIG
B2: GUR-1.6 (designed binder)
chain: B1 chain with W18E, D21E
B3: extracellular domain (ECD) of the human RNF43 protein, biotinylated (domain or fragment)
chain: T1 chain
modifications: biotin (EZ-link-NHS-PEG4-biotin), 1–2 biotin molecules per protein
B4: di-GUR-1.6.12.2 (designed binder)
chain: azide-EQCTSTQDLCHDYSHVCCWPLDCRWAVKYQWFWDCIG
modifications: also: dimer via bivalent PEG5 linker (azide–alkyne cycloaddition)
B5: hex-GUR-1.6.12.2 (designed binder)
chain: azide-EQCTSTQDLCHDYSHVCCWPLDCRWAVKYQWFWDCIG
modifications: also: hexamer via six-armed PEG linker (azide–alkyne cycloaddition)
B6: N-terminal biotinylated GUR-1.6.12.2 (designed binder)
chain: Biotin-EQCTSTQDLCHDYSHVCCWPLDCRWAVKYQWFWDCIG
modifications: cysteine pairing not given here
B7: mouse RNF43 (domain or fragment)
chain: GFGHTGRVLAAAVESERSAEQKAVIRVIPLKMDPTGKLNLTLEGVFAGVAEVTPAEGKLMQSHPLYLCNASDDDNLEPGFISIVKLESPRRAPRPCLSLASKARMAGERGANAVLFDITEDRSAAEQLQQPLGLTKPVVLIWGSDAAKLMEFVYKNRKAYVWIELKEPPAGANY
B8: truncated peptide GUR-1.6.12.2 H11-G37 (peptide)
chain: HDYSHVCCWPLDCRWAVKYQWFWDCIG
B9: GUR-1.6.12.2 (designed binder)
chain: EQCTSTQDLCHDYSHVCCWPLDCRWAVKYQWFWDCIG

For assay [1], the target named is B3. Briefly: SPR.
The next assay deals with NAz-GUR-1.6.12.2. Briefly: SPR. (Surface plasmon resonance follows binding to a sensor surface in real time, without labels.)
Another assay has as its target GUR-1.6.12.4. Kind of assay: SPR.
The target in the next assay is GUR-1.6.12.12. Briefly: SPR.
For another assay, the target named is GUR-1.6.12.16. Kind of assay: SPR.
For another assay, the target named is GUR-1. Briefly: SPR.
The target of assay [2] is B3. Briefly: SPR.
For assay [3], the target named is B3. Briefly: SPR; RNF43 immobilized.
For assay [4], the target named is T1, human RNF43 (in solution). Kind of assay: SPR; bio-GUR-1.6.12.2 immobilized.
The target in a further assay is T2, deglycosylated RNF43. Kind of assay: SPR; deglycosylated RNF43.
The target in the assay “mouse RNF43” is B7. Kind of assay: SPR.

In the case of B1, the Kd in assay [1] is 56 nM. That is a double-digit nanomolar value.

In the case of B2, in [1], the Kd amounted to 92 nM.

For the molecule B3, the Kd was 2.9 nM with NAz-GUR-1.6.12.2; 3.9 nM with GUR-1.6.12.4; 7.9 nM with GUR-1.6.12.12; 4 nM in the assay with GUR-1.6.12.16; 1220 nM with GUR-1.

Consider B4, for which the Kd in assay [2] came out at 0.06 nM.

Molecule B5 yielded an equilibrium dissociation constant (Kd) in assay [2] of 0.0002 nM.

B6: the Kd in assay [3] was determined as 0.5 nM; in assay [4] it was 46.9 nM.

Turning to B7, the Kd with GUR-1.6.12.4 is 4.5 nM; with GUR-1.6.12.12, 5.1 nM; in the assay with GUR-1.6.12.16 it was 1.6 nM.

B8 displayed a Kd in [2] of 4.6 nM.

As to B9, the dissociation constant (Kd) amounted to 2.8 nM with deglycosylated RNF43, 2.1 nM in the assay with mouse RNF43 and 1.1 nM in assay [1].
